Assay [1] concerns the target T1, human IL-6 (human, UniProt P05231 30-212).
T1 construct: the protein used was bought recombinant human IL-6 (R&D Systems), in part biotinylated; also called rhIL-6; hIL-6
Description: panning and screening on IL-6.

For assay [2], the target named is T1, human IL-6. Description: ELISA on IL-6 (also TF1 cell assay).

As to CEANELRCSSGRCLSVHWLCDGVDDCEDSSDEAGCPPRT (designed binder) [SEQ ID NO 600], the binding result in the assay with human IL-6 [1] is listed as “binds”.
Still for that read-out and setting: in the case of CPPDEFQCNSGSCLSQPLLCDGEDDCGDGSDEESCIAAEHT (designed binder) [SEQ ID NO 575] it was “binds”.

B1: SEQ ID NO 629 (designed binder)
chain: CLSSQFQCSNGNCIPAAWLCDSDNDCGDDSDETSCPAPTCPSSQFQCSSGWCIPEDWRCDGVPDCGDGSDEASDHCGDSHILPFSTPGPST
For B1, in the assay with human IL-6 [1], the binding result is “binds”.

B2: SEQ ID NO 925 (designed binder)
chain: CLPDQFRCGNGQCMPLDWVCDGVNDCPDDSDEEGCPPRTCEPGQFQCGSGYCISQRWVCDGENDCEDGSDEATCAGSVPQCPSDEFRCRTGRCIPQAWRCDGVNDCVDNSDEECCKEHT
B2: the binding result with human IL-6 [2] is recorded as “binds”.

B3: SEQ ID NO 787 (designed binder)
chain: CLPNEFTCDSGNCVPQALGCDGDNDCEDNSDESPALCAAPAHTCQANEFTCSSGNCLSPALLCDGVDDCGDNSDETYCASPAPTCLPSQFQCGSGYCISQRWVCDGENDCEDSSDEANCAGSVPT
With B3, the binding result with human IL-6 [1] was “binds”.
Consider CLPSEFQCRDSKICLSADWLCDGVNDCVDGSDEAGCPPRT (designed binder) [SEQ ID NO 599], for which, in the assay with human IL-6 [1], the binding result is recorded as “binds”.

B4: SEQ ID NO 785 (designed binder)
chain: CQASEFPCDSGQCIPQPLGCDGDNDCADNSDEESCQPRTCPASQFPCSSGHCVPLNWVCDGVNDCVDGSDEAGCPPRTCLPDQFQCGSGYCISQRWVCDGENDCEDSSDEANCAGSVPT
Take B4: the binding result in the assay with human IL-6 [1] is on record as “binds”.
Same read-out and setting: for CLPSQFQCGSGYCISQRWVCDGEHDCEDSSDEANCAGSVPT (designed binder) [SEQ ID NO 538] the value was “binds”; for CLPSQFQCGSGWCISQRWVCDGENDCEDSSDEANCAGSVPT (designed binder) [SEQ ID NO 544], “binds”.

B5: SEQ ID NO 784 (designed binder)
chain: CLSSQFQCDNGNCVPQQWVCDGDNDCLDDSDETSCSAPASEPPGSLCPASQFPCSSGHCVPLNWVCDGVNDCVDGSDEAGCPPRTCLPDQFQCGSGYCISQRWVCDGENDCEDSSDEANCAGSVPT
In the case of B5, in the assay with human IL-6 [1], the binding result is on record as “binds”.
Same read-out and setting: in the case of CPSDEFTCDSGRCVSLNWLCDGVNDCGDNSDEAGCPTRT (designed binder) [SEQ ID NO 603] it was “binds”.

These data come from patent publication US20090305962A1 (Amgen, published 2009).
